Target: HLA-Cw*0701 (human)
Assay: cell-based or functional assay

EGDCAPEEK [peptide (D), EGDCAPEEK (amino acids 2-10 of SEQ ID NO: 2)]
percent lysis (51Cr release) of autologous EBV-B cells loaded with 1 nM peptide, effector/target ratio 5:1: ~34%

From patent US20050226881A1 (LUDWIG INSTITUTE FOR CANCER RESEARCH, published 2005)
